{
  "source": "patent US9228015B2",
  "about": "“Nogo receptor antagonists and methods of increasing neurite outgrowth” (Biogen Idec MA Inc., priority 2006, dated 2016)",
  "molecules": {"B1": {"name": "7E11: murine monoclonal anti-Nogo receptor-1 antibody, immunogen rat Nogo receptor-1 residues 110-125, IgG1 kappa, ATCC PTA-4587 (antibody, V domains shown)", "VH": "VQLQESGAELVMPGASVKMSCKASGYTFTDYWMHWVKQRPGQGLEWIGAIDPSDSYSSYNQNFKGKATLTVDGSSSTAYMQLSSLTSEDSAVYYCARRITEAGAWFAYWGQGTTVT", "VL": "MKLPVRLLVLMFWIPASSSDVVMTQTPLSLPVSLGDQASISCRSSQSLVHSNGNTYLHWYLQKPGQSPKLLIYKVSNRFSGVPDRFSGSGSGTDFTLKISRVDAEDLGVYFCSQSTHVPFTFGGGTKLEIKRADAAPTVSISHH", "modifications": "7E11 heavy chain; 7E11 light chain", "notes": "murine monoclonal anti-Nogo receptor-1 antibody, immunogen rat Nogo receptor-1 residues 110-125, IgG1 kappa, ATCC PTA-4587"}},
  "key": {"[1]": {"molecular_target": "T1, cells expressing human Nogo receptor-1 (Homo sapiens, UniProt Q9BZR6)", "T1 construct": "expressed in transfected cells; host or cells: COS-7 or 293 cells", "T1 sequence (Q9BZR6 27-447)": "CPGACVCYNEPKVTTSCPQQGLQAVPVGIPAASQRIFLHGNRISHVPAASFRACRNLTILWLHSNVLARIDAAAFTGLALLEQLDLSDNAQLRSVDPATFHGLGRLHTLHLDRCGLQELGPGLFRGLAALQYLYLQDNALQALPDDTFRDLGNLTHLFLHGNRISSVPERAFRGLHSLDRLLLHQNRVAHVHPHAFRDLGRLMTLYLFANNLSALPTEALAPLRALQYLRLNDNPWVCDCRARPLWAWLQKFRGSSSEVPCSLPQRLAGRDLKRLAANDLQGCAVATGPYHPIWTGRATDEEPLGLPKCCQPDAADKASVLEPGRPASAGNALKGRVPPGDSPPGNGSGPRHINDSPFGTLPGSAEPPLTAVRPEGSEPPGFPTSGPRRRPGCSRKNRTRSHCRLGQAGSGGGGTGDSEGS", "test": "Immunohistochemistry on fixed and live COS-7 or 293 cells expressing human Nogo receptor-1", "format": "cell-based", "conditions": "immunohistochemical staining", "experimental": "To further characterize the binding properties of anti-Nogo receptor-1 mAbs produced as described in Example 1, we compared binding to both fixed and live COS-7 or 293 cells expressing rat or human Nogo receptor-1.\nNogo receptor-1 transfected and non-transfected cells were plated in 8-well Lab-Tek™ culture slides, fixed with 4% paraformaldehyde for 15 minutes, blocked with 10% normal goat serum, 0.1% Triton X-100 in PBS for 1 hour. Mab 7E11 was added at 15 μg/ml and 1.5 μg/ml in blocking solution and incubated for 2 hours at room temperature; Alexa®-conjugated secondary antibody anti-mouse (Molecular Probes) was incubated at a 1:300 dilution in blocking solution for 1 hour; DAPI was added at 5 μg/ml to the secondary antibody to label all nuclei.\nTransfected and non-transfected cells were plated in 8 well Lab-Tek™ culture slides, blocked with FACS buffer (containing 4% donor horse serum) for 30 minutes at 4° C., incubated with 7E11 at 15 μg/ml and 1.5 μg/ml in FACS buffer for 1 hour at 4° C., rinsed and incubated with secondary antibody anti-mouse-Alexa® (1:300 in FACS buffer) for 30 minutes at 4° C."}, "[2]": {"molecular_target": "T2, Nogo66 binding to sNogoR344-Fc (rat Nogo receptor-1 residues 26-344) (Rattus norvegicus, UniProt Q99M75, A303T/C287S/C43R/E284G/T53A)", "T2 construct": "amino acid residues 26-344 of rat Nogo receptor-1; made in house; CHO (DG44) is described only for sNogoR310-Fc", "T2 sequence (Q99M75 26-344 C43R/T53A/E284G/C287S/A303T)": "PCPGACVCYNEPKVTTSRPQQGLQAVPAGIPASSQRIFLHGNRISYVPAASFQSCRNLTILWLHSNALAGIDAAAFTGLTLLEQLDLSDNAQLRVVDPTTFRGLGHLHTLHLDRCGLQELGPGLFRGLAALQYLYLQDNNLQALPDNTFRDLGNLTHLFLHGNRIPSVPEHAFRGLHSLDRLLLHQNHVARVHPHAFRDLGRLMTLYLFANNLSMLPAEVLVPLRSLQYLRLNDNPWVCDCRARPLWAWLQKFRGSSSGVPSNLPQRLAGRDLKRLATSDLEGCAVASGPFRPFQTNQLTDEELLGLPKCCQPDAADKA", "test": "SPA bead assay: 125I-Nogo66 binding to immobilized sNogoR344-Fc, inhibition by mAb", "conditions": "125I-Nogo66 binding to sNogoR344-Fc", "experimental": "0.5 μg of a soluble Nogo receptor-1 fusion protein comprising amino acid residues 26-344 of rat Nogo receptor-1 and the hinge and Fc region of the rat IgG1 molecule (sNogoR344-Fc) produced as described below was immobilized on […] of protein-A- or wheatgerm agglutinin-conjugated SPA beads (Amersham Pharmacia Biotech) for 2 hours at 25° C. SPA beads coupled with Fc-sNogoR-1, anti-Nogo receptor-1 mAb and 1 μl ^125I-Nogo66 (Amersham, 2000 Ci/mmol, 1 nM) in […] of the HEPES-buffered incubation medium (10 mM HEPES, pH 7.4, 0.1% bovine serum albumin, 0.1% ovalbumin, 2 mM MgCl2, 2 mM CaCl2 and protease inhibitors) was added to each sample well. After 16 hours, radioactivity was measured in quadruplicate samples using a TopCount® (Packard). IC50 values were calculated from a curve-fit analysis (FIG. 3) (PRISM, GraphPad Software, NJ). In some experiments, we also used AP-ligand conjugates (e.g. AP-Nogo66) and detected binding by monitoring alkaline phosphatase activity. We also assayed the ability of the mAbs to block binding of the ligands MAG-Fc and AP-OM-gp to Nogo receptor-1."}, "[3]": {"molecular_target": "T3, rat NgR1 (Rattus norvegicus, UniProt Q99M75)", "T3 sequence (Q99M75 27-310)": "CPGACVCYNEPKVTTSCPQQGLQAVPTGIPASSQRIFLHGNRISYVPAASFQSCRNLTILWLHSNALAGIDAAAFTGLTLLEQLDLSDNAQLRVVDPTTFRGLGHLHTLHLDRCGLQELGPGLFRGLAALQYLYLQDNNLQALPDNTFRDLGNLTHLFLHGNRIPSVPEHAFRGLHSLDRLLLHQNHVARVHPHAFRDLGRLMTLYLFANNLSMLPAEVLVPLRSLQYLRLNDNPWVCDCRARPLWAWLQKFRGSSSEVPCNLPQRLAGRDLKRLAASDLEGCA", "test": "Antibody binding specificity: rat Nogo receptor-1"}, "[4]": {"molecular_target": "T4, panel of Nogo receptor-1 polypeptides (sNogoR310-Fc, sNogoR344-Fc, p-617, p-618, p-4, p-5) (Rattus norvegicus, UniProt Q99M75)", "T4 construct": "made in house", "test": "Antibody specificity ELISA with a panel of Nogo receptor-1 polypeptides", "format": "binding", "description": "To determine the specificity of the monoclonal and Fab-phage antibodies produced in Examples 1 and 2, we performed an ELISA using a panel of Nogo receptor-1 polypeptides. The panel consisted of sNogoR310-Fc (a fusion protein comprising amino acids 26-310 of rat Nogo receptor-1 and a rat Fc fragment), sNogoR344-Fc (see supra), polypeptide p-617 (SEQ ID NO: 1), polypeptide p-618 (a 19-amino acid polypeptide from the LRR7 region of rat Nogo receptor-1; FIG. 2; SEQ ID NO: 11) and polypeptides p-4 and p-5 (polypeptides from the LRR5 and LRRCT regions of Nogo receptor-1, respectively). Ovalbumin and BSA were used as controls."}, "[5]": {"molecular_target": "T5, human NgR2 (Homo sapiens, UniProt Q86UN3)", "T5 sequence (Q86UN3 47-390)": "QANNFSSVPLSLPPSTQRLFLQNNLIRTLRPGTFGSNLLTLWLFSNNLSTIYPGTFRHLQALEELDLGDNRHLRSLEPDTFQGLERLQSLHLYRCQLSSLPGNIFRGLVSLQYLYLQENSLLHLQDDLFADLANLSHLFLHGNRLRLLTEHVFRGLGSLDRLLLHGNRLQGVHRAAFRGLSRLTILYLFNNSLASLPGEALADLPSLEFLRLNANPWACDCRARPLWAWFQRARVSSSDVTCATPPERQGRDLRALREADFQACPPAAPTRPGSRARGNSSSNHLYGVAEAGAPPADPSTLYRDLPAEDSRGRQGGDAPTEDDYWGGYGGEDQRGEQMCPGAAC", "test": "Antibody binding specificity: human Nogo receptor-2"}},
  "note": "Entries after “also recorded” stand apart in the source; their conditions may differ.",
  "data": [
    {"molecule": "B1", "values": [
      {"measurement": "binding to fixed and live cells expressing human Nogo receptor-1", "setting": "[1]", "value": "bound"},
      {"measurement": "IC50", "setting": "[2]", "value": 400, "unit": "nM"},
      {"measurement": "binding to rat Nogo receptor-1", "setting": "[3]", "value": "bound; also recorded: binds well"},
      {"measurement": "binding to polypeptide p-617 (SEQ ID NO: 1)", "setting": "[4]", "value": "specifically bound"},
      {"measurement": "binding to human Nogo receptor-2", "setting": "[5]", "value": "not"}
    ]}
  ]
}
